US20030199016

Legend:
[1] = test system: ACTIVASE recombinant human tissue-type plasminogen activator (r-tPA)
[2] = test system: CHO plasminogen activator
Sequence of CHO plasminogen activator (chain, as listed by the source): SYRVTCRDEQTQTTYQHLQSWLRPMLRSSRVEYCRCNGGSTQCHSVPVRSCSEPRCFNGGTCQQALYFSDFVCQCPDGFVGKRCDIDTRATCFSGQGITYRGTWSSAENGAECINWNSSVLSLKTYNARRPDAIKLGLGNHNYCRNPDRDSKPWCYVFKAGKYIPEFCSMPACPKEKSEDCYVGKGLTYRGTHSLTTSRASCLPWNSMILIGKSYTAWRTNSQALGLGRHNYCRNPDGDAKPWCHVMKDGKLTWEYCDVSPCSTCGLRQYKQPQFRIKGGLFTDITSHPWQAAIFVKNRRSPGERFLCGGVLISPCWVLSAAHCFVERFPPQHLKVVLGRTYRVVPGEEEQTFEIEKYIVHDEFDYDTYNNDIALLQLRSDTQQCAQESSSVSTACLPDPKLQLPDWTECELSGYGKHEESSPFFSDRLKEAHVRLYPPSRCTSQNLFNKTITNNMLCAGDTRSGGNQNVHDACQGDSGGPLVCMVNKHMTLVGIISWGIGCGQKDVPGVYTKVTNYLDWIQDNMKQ

Sequence of TNK-tPA (chain, as listed by the source): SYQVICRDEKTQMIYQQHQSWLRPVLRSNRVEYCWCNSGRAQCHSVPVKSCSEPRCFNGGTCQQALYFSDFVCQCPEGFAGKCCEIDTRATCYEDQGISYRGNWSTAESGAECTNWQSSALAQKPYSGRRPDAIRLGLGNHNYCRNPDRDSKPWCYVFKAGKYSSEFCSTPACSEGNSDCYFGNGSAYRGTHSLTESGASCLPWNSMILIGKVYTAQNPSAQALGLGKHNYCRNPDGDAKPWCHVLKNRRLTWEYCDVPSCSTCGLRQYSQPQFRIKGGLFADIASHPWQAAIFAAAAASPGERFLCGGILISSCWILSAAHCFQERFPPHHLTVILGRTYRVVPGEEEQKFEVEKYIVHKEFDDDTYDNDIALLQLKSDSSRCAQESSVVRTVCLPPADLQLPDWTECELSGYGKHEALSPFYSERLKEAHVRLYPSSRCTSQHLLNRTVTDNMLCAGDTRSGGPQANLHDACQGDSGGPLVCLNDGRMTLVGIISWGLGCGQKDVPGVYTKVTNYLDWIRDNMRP
Sequence of ACTIVASE recombinant human tissue-type plasminogen activator (r-tPA) (chain, as listed by the source): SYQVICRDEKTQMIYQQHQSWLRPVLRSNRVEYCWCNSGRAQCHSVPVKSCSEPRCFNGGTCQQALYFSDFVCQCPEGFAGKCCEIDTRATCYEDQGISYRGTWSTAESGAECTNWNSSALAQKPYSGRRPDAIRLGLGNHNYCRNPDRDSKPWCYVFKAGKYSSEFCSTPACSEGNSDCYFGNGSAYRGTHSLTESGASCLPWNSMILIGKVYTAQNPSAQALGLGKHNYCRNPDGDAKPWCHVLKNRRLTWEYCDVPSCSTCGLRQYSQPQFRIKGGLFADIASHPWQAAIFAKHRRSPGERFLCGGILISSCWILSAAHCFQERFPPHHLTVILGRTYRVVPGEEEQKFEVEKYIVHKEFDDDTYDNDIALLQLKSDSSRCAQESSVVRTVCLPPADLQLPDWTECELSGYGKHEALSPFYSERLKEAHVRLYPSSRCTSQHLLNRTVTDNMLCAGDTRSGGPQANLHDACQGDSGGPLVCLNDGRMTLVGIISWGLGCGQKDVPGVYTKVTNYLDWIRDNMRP

Plasminogen
conversion of single-chain form to two-chain form (reversed-phase HPLC after plasmin and DTT/urea treatment) (TNK-tPA): incubation with plasminogen converts the single-chain form of the three plasminogen activators to the two-chain form | conversion of single-chain form to two-chain form (reversed-phase HPLC after plasmin and DTT/urea treatment) [1]: incubation with plasminogen converts the single-chain form of the three plasminogen activators to the two-chain form | conversion of single-chain form to two-chain form (reversed-phase HPLC after plasmin and DTT/urea treatment) [2]: incubation with plasminogen converts the single-chain form of the three plasminogen activators to the two-chain form
